The values below come from CN117736312A (SHANGHAI BOVAX BIOLOGICAL SCIENCE & TECH CO LTD, dated 2024).

Holding throughout (assay): sandwich ELISA (rabbit anti-L1 capture)
Background: In an ELISA, binding on a coated surface is turned into a signal by an enzyme label.

For experiment [1], the target named is T1, HPV33L1 (human papillomavirus type 33, UniProt P06416 1-499).
T1 sequence: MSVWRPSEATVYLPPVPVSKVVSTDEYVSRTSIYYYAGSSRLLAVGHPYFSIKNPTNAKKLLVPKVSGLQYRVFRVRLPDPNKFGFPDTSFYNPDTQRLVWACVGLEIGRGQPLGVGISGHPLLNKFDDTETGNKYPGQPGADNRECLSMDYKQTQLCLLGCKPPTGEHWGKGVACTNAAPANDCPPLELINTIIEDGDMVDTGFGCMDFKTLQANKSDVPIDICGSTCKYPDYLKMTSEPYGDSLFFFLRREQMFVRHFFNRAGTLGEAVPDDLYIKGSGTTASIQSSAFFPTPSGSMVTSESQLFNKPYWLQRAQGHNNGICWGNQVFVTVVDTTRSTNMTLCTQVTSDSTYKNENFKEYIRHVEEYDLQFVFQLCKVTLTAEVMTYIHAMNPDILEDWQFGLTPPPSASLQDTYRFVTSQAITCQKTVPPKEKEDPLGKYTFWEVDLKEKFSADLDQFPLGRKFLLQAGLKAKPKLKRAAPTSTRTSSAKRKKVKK

The target of experiment [2] is T2, HPV16L1 (human papillomavirus type 16, UniProt P03101 1-505).
T2 sequence: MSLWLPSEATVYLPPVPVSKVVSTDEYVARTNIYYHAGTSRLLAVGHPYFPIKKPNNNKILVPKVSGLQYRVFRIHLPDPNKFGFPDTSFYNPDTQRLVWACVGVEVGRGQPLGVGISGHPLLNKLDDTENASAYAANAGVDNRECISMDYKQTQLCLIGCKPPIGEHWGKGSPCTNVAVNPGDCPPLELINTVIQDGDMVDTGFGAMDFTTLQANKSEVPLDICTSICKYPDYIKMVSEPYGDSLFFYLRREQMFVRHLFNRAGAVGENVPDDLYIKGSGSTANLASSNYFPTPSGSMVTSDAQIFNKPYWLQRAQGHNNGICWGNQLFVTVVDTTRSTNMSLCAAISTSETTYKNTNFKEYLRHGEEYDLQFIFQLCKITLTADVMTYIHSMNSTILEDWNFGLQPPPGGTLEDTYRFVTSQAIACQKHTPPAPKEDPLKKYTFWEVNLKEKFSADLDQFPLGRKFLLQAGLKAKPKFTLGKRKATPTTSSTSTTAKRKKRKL

Experiment [3] deals with T3, HPV52L1 (human papillomavirus type 52, UniProt Q05138 27-529).
T3 sequence: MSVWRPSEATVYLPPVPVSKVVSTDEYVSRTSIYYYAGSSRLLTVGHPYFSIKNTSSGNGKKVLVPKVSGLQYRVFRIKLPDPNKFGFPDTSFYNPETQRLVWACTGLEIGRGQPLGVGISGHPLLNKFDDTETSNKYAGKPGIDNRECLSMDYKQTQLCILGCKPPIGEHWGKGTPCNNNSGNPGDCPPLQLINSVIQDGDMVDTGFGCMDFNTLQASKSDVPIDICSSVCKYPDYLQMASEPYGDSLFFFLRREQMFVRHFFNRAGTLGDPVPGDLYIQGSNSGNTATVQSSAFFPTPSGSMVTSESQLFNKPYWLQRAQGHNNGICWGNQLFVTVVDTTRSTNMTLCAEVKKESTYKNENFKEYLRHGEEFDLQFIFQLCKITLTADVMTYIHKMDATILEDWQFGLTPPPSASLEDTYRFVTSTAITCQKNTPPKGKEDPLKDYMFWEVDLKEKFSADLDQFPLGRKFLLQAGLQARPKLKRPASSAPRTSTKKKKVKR

B1: HPV 59编号为30单克隆抗体 (antibody, V domains shown)
VH: QIQLVQSGPELKKPGETVKISCKASGYTFTDYSMHWVKQAPGKGLKWMGWINTETGEPTYADDFKGRFAFSLETSASTAYLQINNLKIEDTATYFCTRDGYVWYFDVWGAGTTVTVSS
VL: QIVLSQSPAILSASPGEKVTMTCRASSSVNYMHWYQQKPGSSPKPWIYATSNLASGVPARFSGSGSGTSYSLTISRVEAEDAATYYCQQWSSNPIFTFGSGTKLEIK
notes: Mouse hybridoma antibody tested as cell supernatant; also called 59H30
As for B1, the binding result in experiment [1], in experiment [2] and in experiment [3] was “no binding (tested: 原液40μg/ml; 细胞上清1:100)” each time.
